Numbering of substitutions follows the chain as printed. Names and notes keep the numbering of the source.

Data set [1] addresses Native rat insulin degrading enzyme (rIDE, insulysin), wild type, residues 42-1019 (rat) (UniProt P35559).
Data set [2] concerns the molecule itself. Nature of the data set: crystal structure; wild type rIDE and rIDE-E111F, no substrate peptide added; enzyme at 8 mg/ml in 50 mM Tris 7.4, 1 mM DTT, 100 mM NaCl; sitting drop, 100 mM sodium citrate pH 6.5, 100 mM ammonium acetate, 20% PEG 4000, 20 or 22°C; space group C2, one molecule per asymmetric unit.

Molecule “bradykinin (from UniProt P01042 381-389) (peptide)” gave an enzyme activity: activation by bradykinin of hydrolysis of 10 µM Abz-…-EDDnp in data set [1] of 4 fold.

B1: Native rat insulin degrading enzyme (rIDE, insulysin), wild type, residues 42-1019 (enzyme, UniProt P35559 42-1019, looked up)
chain: MNNPAIQRIEDHIVKSPEDKREYRGLELANGIKVLLISDPTTDKSSAALDVHIGSLSDPPNIPGLSHFCEHMLFLGTKKYPKENEYSQFLSEHAGSSNAFTSGEHTNYYFDVSHEHLEGALDRFAQFFLCPLFDASCKDREVNAVDSEHEKNVMNDAWRLFQLEKATGNPKHPFSKFGTGNKYTLETRPNQEGIDVREELLKFHSTYYSSNLMAICVLGRESLDDLTNLVVKLFSEVENKNVPLPEFPEHPFQEEHLKQLYKIVPIKDIRNLYVTFPIPDLQQYYKSNPGHYLGHLIGHEGPGSLLSELKSKGWVNTLVGGQKEGARGFMFFIINVDLTEEGLLHVEDIILHMFQYIQKLRAEGPQEWVFQECKDLNAVAFRFKDKERPRGYTSKIAGKLHYYPLNGVLTAEYLLEEFRPDLIDMVLDKLRPENVRVAIVSKSFEGKTDRTEQWYGTQYKQEAIPEDVIQKWQNADLNGKFKLPTKNEFIPTNFEILALEKDATPYPALIKDTAMSKLWFKQDDKFFLPKACLNFEFFSPFAYVDPLHCNMAYLYLELLKDSLNEYAYAAELAGLSYDLQNTIYGMYLSVKGYNDKQPILLKKITEKMATFEIDKKRFEIIKEAYMRSLNNFRAEQPHQHAMYYLRLLMTEVAWTKDELKEALDDVTLPRLKAFIPQLLSRLHIEALLHGNITKQAALGVMQMVEDTLIEHAHTKPLLPSQLVRYREVQLPDRGWFVYQRRNEVHNNCGIEIYYQTDMQSTSENMFLELFCQIISEPCFNTLRTKEQLGYIVFSGPRRANGIQGLRFIIQSEKPPHYLESRVEAFLITMEKAIEDMTEEAFQKHIQALAIRRLDKPKKLSAECAKYWGEIISQQYNYDRDNIEVAYLKTLSKDDIIKFYKEMLAVDAPRRHKVSVHVLAREMDSCPVVGEFPSQNDINLSEAPPLPQPEVIHNMTEFKRGLPLFPLVKPHINFMAAKL
notes: Insulin-degrading enzyme (insulysin, EC 3.4.24.56), rat; begins at methionine 42 and extends through the native C-terminal residue leucine 1019 (the same paragraph also prints 'residues 42-1016'); In the crystal there is one molecule per asymmetric unit, and the dimer is formed by crystal symmetry; Expressed from pFastBac HTb; The model contains residues 42-963 and 980-1011; also called wild type …
On to B1, for which the binding result in data set [2] is “binds”.

B2: rat insulin degrading enzyme E111F mutant (rIDE-E111F), residues 42-1019 (enzyme, UniProt P35559 42-1019, looked up)
chain: B1 chain with E70F
notes: Insulin-degrading enzyme (insulysin), rat; begins at methionine 42 and extends through leucine 1019; catalytically compromised E111F mutant; No zinc ion in the crystal structure; The model contains residues 42-965 and 978-1011; also called E111F-rIDE; E111F IDE mutant; not shown: His6, N-terminal, cleaved
For B2, in data set [2], the binding result is given as “binds”.

Source of the values: article PMC3123307, “Identification of the Allosteric Regulatory Site of Insulysin” (PLoS ONE, 2011).
